Source: PMC8041770, “An engineered ligand trap inhibits leukemia inhibitory factor as pancreatic cancer treatment strategy” (Communications Biology, 2021)

Biological target: yeast-displayed mouse LIF (mLIF, Ser24 to Phe203) (mouse, UniProt P09056 24-203)
Assay: flow cytometry on cells; LIF displayed on yeast (EBY100), soluble Fc fusion titrated in PBS with 1 mg/ml BSA, Fc detected with fluorescent secondary antibody; apparent Kd by non-linear regression
Conditions: one partner purified

B1: mLIFR-Fc (mouse LIFR CBM I–Ig-like–CBM II fused to an antibody Fc domain) (Fc fusion)
chain: LKRGVQDLKCTTNNMRVWDCTWPAPLGVSPGTVKDICIKDRFHSCHPLETTNVKIPALSPGDHEVTINYLNGFQSKFTLNEKDVSLIPETPEILDLSADFFTSSLLLKWNDRGSALPHPSNATWEIKVLQNPRTEPVALVLLNTMLSGKDTVQHWNWTSDLPLQCATHSVSIRWHIDSPHFSGYKEWSDWSPLKNISWIRNTETNVFPQDKVVLAGSNMTICCMSPTKVLSGQIGNTLRPLIHLYGQTVAIHILNIPVSENSGTNIIFITDDDVYGTVVFAGYPPDVPQKLSCETHDLKEIICSWNPGRITGLVGPRNTEYTLFESISGKSAVFHRIEGLTNETYRLGVQMHPGQEIHNFTLTGRNPLGQAQSAVVINVTERVAPHDPTSLKVKDINSTVVTFSWYLPGNFTKINLLCQIEICKANSKKEVRNATIRGAEDSTYHVAVDKLNPYTAYTFRVRCSSKTFWKWSRWSDEKRHLTTEAT
notes: signal peptide in the construct; mouse LIF receptor (mLIFR), three most N-terminal extracellular domains CBM I–Ig-like–CBM II, Met1 to Thr529; also called soluble mLIFR-Fc; mLIFR mIgG2a Fc; source: Expi293F, transfected (pAdd2), purified from medium (Protein-A Sepharose)
Kd: 160 ± 20 pM
